Data from article PMC2441792.

Key:
[1] = target: δ2K36A (Walker A mutant of protein δ) (Streptococcus pyogenes (plasmid pSM19035)); test: SEC + cross-linking
[2] = target: protein δ (ParA-Ib type Walker-box ATPase) of plasmid pSM19035, wild type (Streptococcus pyogenes (plasmid pSM19035)); test: SEC + cross-linking

Substance | stoichiometry N [1] | stoichiometry N [2]
δ2K36A (Walker A mutant of protein δ) (enzyme) | 2 | –
protein δ (ParA-Ib type Walker-box ATPase) of plasmid pSM19035, wild type (enzyme) | – | 2
